In US20060188526A1, “Method for enhancing the immune response to Staphylococcus aureus infection” (priority 2005, published 2006):

How the values were obtained:
[1] = molecular target: T1, C3b bound to S. aureus surface (Homo sapiens, UniProt P01024); assay: C3-fragments bound to C3b-coated S. aureus with factor H, factor I or both (ELISA, Western blot); format: biochemical
T1 construct: purchased Advance Research Technologies, San Diego, Calif
Protocol: Opsonization with purified complement components. Washed bacteria (1×10^9 CFU in GVBS^++ buffer) were incubated with 0.35% IVIg for 30 min. at room temperature in order to sensitize the bacteria for activating the classical complement pathway. Antibody-coated bacteria were then incubated in 60% DGVBS^++ buffer with the purified human complement proteins C1, C4, C2, and C3 to generate the classical complement pathway C3-convertase and bind C3b to the S. aureus surface. Bacteria were incubated with C1 (2 μg/ml) at 30° C. for 15 min., and then with C4 (10 μg/ml) at 37° C. for 45 min. Bacteria were then incubated with C2 (0.5 μg/ml) and C3 (10 μg/ml) together at 30° C. for 30 min. C3b-coated staphylococci were then incubated with factor H (40 μg/ml), factor 1 (4 μg/ml), or both factors for 30 min. at 37° C. The bacteria pellet was then sedimented and the supernatants recovered to measure C3-fragments released from the bacteria. The bacteria were then washed and treated with 0.05 ml of 25 mM methylamine (Sigma-Aldrich) for 60 min. at 37° C. to recover C3-fragments bound by ester bonds to the S. aureus surface. The stripped bacteria were sedimented and the supernatants containing previously surface bound C3-fragments were recovered for testing by ELISA and Western blot. […]
(§1) Analysis of surface-bound and released C3-fragments. ELISA was used to quantitate total C3-fragment amount and iC3b amount as follows. […] Plates were washed 3 three times with PBS/Tween buffer and developed with TMB Plus (Accurate Chemical), stopped with 2.5 N H2SO4, and read at 450 nm.
Values for C3-fragments bound and iC3b bound to S. aureus opsonized in serum were calculated subtracting the values obtained with heat inactivated serum from the values obtained with NHS. Methylamine supernatants of surface bound C3-fragments were analyzed by Western blot analysis performed with polyclonal goat anti-human C3 antibody (Advanced Research Technologies) and horseradish peroxidase-labeled rabbit anti-goat antibody (Sigma-Aldrich). Bound antibody was detected by enhanced chemiluminescence.

[2] = molecular target: T1, C3b bound to S. aureus surface; assay: C3-fragments released from C3b-coated S. aureus with factor H, factor I or both (C3 ELISA, Western blot); format: biochemical
Protocol: Opsonization with purified complement components. Washed bacteria (1×10^9 CFU in GVBS^++ buffer) were incubated with 0.35% IVIg for 30 min. at room temperature in order to sensitize the bacteria for activating the classical complement pathway. Antibody-coated bacteria were then incubated in 60% DGVBS^++ buffer with the purified human complement proteins C1, C4, C2, and C3 to generate the classical complement pathway C3-convertase and bind C3b to the S. aureus surface. Bacteria were incubated with C1 (2 μg/ml) at 30° C. for 15 min., and then with C4 (10 μg/ml) at 37° C. for 45 min. Bacteria were then incubated with C2 (0.5 μg/ml) and C3 (10 μg/ml) together at 30° C. for 30 min. C3b-coated staphylococci were then incubated with factor H (40 μg/ml), factor 1 (4 μg/ml), or both factors for 30 min. at 37° C. […]
as §1
Values for C3-fragments bound and iC3b bound to S. aureus opsonized in serum were calculated subtracting the values obtained with heat inactivated serum from the values obtained with NHS. […] Bound antibody was detected by enhanced chemiluminescence.

[3] = test system: C3b-coated S. aureus phagocytosis by human polymorphonuclear leukocytes (PMN); assay: Phagocytosis assay, C3b-coated S. aureus (purified complement components) incubated with factor H, factor I or both; format: cell-based; settings: compared with untreated C3b-coated S. aureus, factor H 40 μg/ml, factor I 4 μg/ml
Protocol: Bacterial strains and growth. Staphylococcus aureus strain Reynolds, capsule polysaccharide serotype 5, was used in all experiments. This strain has a pattern of C3-fragment deposition similar to other capsule polysaccharide serotype 5 and 8 strains—the serotypes that account for the majority of human S. aureus infections. Mid-logarithmic phase bacteria were grown in Columbia 2% NaCl broth at 37° C. with agitation for 2 hours to an optical densitometry of 0.7 to 1.3 at 600 nm. In midlogarithmic phase growth minimal capsule is expressed by strain Reynolds.
Opsonization with purified complement components. Washed bacteria (1×10^9 CFU in GVBS^++ buffer) were incubated with 0.35% IVIg for 30 min. at room temperature in order to sensitize the bacteria for activating the classical complement pathway. Antibody-coated bacteria were then incubated in 60% DGVBS^++ buffer with the purified human complement proteins C1, C4, C2, and C3 to generate the classical complement pathway C3-convertase and bind C3b to the S. aureus surface. […]
Phagocytosis assay. […] Bacteria and PMN were visualized by fluorescence microscopy using broad wavelength excitation and emission filters that allow visualization at 100× magnification. Microscope slides were blinded to the reader, and 100 neutrophils per slide were counted to determine the percent of PMN phagocytosing bacteria and total number of S. aureus ingested.

T1 sequence (P01024 749-1663): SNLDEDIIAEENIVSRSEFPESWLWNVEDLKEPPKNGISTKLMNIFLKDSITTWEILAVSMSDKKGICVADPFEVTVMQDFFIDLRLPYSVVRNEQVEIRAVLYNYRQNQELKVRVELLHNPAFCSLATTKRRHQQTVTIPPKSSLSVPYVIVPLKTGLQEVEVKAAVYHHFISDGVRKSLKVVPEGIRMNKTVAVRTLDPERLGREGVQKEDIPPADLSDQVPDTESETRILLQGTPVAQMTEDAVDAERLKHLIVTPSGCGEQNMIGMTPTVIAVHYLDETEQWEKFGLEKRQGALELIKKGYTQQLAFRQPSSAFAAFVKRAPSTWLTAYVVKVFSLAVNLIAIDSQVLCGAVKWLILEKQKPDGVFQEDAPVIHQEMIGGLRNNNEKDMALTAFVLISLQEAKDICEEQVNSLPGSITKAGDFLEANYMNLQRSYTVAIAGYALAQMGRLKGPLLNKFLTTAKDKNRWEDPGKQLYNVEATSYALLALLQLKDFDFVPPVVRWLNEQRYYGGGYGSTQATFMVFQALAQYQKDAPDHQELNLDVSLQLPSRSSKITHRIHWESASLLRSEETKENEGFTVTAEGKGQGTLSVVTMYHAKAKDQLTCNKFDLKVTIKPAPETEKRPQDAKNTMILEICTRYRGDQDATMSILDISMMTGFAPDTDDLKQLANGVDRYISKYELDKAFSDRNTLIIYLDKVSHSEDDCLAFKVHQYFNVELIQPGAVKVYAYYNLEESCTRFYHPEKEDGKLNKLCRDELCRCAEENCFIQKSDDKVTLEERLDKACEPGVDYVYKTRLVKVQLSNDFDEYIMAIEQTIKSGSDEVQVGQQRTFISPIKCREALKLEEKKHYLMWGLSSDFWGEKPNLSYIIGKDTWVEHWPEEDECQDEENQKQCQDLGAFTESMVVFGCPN
T1 sequence (P01024 23-667): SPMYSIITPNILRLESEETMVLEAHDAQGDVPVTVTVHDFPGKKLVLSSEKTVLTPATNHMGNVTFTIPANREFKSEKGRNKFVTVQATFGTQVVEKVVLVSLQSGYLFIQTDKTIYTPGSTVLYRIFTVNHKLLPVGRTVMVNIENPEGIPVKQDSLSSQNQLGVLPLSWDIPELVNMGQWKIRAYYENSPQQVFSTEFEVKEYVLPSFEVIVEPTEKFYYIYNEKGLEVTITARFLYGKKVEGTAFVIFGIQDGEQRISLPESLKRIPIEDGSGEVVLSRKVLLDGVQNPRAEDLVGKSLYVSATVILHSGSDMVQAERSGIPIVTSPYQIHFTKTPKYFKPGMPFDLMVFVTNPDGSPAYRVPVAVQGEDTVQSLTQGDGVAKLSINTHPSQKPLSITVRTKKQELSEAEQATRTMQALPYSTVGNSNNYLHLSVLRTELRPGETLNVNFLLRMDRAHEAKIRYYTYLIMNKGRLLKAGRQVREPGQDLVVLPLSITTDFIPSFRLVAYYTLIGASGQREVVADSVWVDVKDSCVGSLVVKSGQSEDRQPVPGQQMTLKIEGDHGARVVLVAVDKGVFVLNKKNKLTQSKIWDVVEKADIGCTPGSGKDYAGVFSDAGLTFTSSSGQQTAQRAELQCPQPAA

B1: factor I: purified human complement regulatory protein factor I, serum enzyme that cleaves C3b to iC3b (protein, UniProt P05156 19-583, looked up)
Complement factor I: KVTYTSQEDLVEKKCLAKKYTHLSCDKVFCQPWQRCIEGTCVCKLPYQCPKNGTAVCATNRRSFPTYCQQKSLECLHPGTKFLNNGTCTAEGKFSVSLKHGNTDSEGIVEVKLVDQDKTMFICKSSWSMREANVACLDLGFQQGADTQRRFKLSDLSINSTECLHVHCRGLETSLAECTFTKRRTMGYQDFADVVCYTQKADSPMDDFFQCVNGKYISQMKACDGINDCGDQSDELCCKACQGKGFHCKSGVCIPSQYQCNGEVDCITGEDEVGCAGFASVTQEETEILTADMDAERRRIKSLLPKLSCGVKNRMHIRRKRIVGGKRAQLGDLPWQVAIKDASGITCGGIYIGGCWILTAAHCLRASKTHRYQIWTTVVDWIHPDLKRIVIEYVDRIIFHENYNAGTYQNDIALIEMKKDGNKKDCELPRSIPACVPWSPYLFQPNDTCIVSGWGREKDNERVFSLQWGEVKLISNCSKFYGNRFYEKEMECAGTYDGSIDACKGDSGGPLVCMDANNVTYVWGVVSWGENCGKPEFPGVYTKVANYFDWISYHVGRPFISQYNV
[1]; C3 ELISA, compared to control bacteria (no factor H or I exposure), FIG. 4B
  decrease of amount of total C3-fragments bound to C3b-coated S. aureus: 58%
[1]; compared with untreated C3b-coated S. aureus, FIG. 4C
  types of C3-fragments bound to the S. aureus surface, Western blot: less C3b and more iC3b
[1]; iC3b ELISA, compared with untreated C3b-coated bacteria, FIG. 4A
  increase of amount of iC3b bound to S. aureus: 75%
[2]; C3 ELISA, compared with incubation in buffer alone, FIG. 5A
  amounts of C3-fragments shed from the S. aureus surface: increased significantly
[2]; FIG. 5B
  form of C3-fragments shed, Western blot with polyclonal anti-C3 antibody: likely iC3b or possibly C3c
[3]; FIG. 3A
  decrease of percent of neutrophils phagocytosing C3b-coated S. aureus: 29%
[3]; FIG. 3B
  decrease of number of C3b-coated S. aureus phagocytosed by 100 neutrophils: 40%
